The series concerns the target T1, RIG-I full length (UniProt O95786 O95786:1-925).
T1 sequence: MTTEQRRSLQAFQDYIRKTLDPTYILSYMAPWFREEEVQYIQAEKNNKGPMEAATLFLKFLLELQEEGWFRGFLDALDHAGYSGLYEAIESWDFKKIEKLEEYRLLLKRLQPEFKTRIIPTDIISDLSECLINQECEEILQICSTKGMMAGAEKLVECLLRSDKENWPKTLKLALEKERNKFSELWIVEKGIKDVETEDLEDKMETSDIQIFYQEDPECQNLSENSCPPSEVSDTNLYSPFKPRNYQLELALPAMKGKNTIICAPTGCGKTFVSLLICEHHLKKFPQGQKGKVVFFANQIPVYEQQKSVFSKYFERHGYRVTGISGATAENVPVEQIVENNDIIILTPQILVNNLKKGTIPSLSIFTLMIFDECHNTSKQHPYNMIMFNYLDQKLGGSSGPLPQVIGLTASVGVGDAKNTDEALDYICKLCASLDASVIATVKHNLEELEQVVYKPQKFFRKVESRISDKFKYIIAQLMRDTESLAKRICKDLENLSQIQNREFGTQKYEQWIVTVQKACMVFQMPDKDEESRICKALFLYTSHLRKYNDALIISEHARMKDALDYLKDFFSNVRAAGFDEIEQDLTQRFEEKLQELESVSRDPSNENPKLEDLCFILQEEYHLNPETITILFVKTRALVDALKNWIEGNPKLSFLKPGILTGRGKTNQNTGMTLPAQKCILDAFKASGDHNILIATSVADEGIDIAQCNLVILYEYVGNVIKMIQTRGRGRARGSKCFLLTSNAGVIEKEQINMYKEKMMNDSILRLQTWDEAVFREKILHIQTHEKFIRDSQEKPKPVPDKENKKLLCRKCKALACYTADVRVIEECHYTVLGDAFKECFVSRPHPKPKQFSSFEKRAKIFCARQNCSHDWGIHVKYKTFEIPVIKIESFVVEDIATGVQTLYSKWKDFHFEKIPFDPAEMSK
As to the kind of experiment: EMSA; with ATP; 6 pmol RNA, 0-20 pmol RIG-I; affinity equivalent to poly U/UC. As to conditions: stem-loop motif 70-114, complementary 5' and 3' ends. (In general: In EMSA bound probe runs differently from free probe, usually more slowly.)

The text below walks through data of patent US10624964, “Methods and compositions for stimulating immune response using potent immunostimulatory RNA motifs” (The Trustees of the University of Pennsylvania).

B1: DVG-268 ivtRNA (ssRNA)
RNA: ACCAGACAAGAGUUUAAGAGAUAUGUAUCCUUUUAAAUUUUCUUGUCUUCUUGUAAGUUUUUCUUGCUAUUGUCAUAUGGAUAAGUCCAAGACUAUCUUUAUCUAUGUCCACAAGAUUGGUAACUGGGUCAUUCCCUGACCAGAAGUUUGAAGCAAGACUUCCCGGUACCUGGAAGUCUUGGACUUAUCCAUAUGACAAUAGUAAGAAAAACUUACAAGAAGACAAGAAAAUUUAAUAGGAUACAUAUCUCUUAAACUCUUGUCUGGU
modifications: 5'-triphosphate (T7 transcript)
For the molecule B1, the binding result is on record as “binds”.
